B1: CPEB3 Ribozyme (parent)
chain: GGGGGCCACAGCAGAAGCGUUCACGUCGCGGCCCCUGUCAGAUUCUGGUGAAUCUGCGAAUUCUGCUGU

In the RNAGym collection of RNA variant scans (doi:10.7554/elife.80360) one finds self-cleavage data, which are given here for 78 variants.

Variants of B1 are the subject of this series. The experiment in a line: self-cleavage, relative activity (ratio to wild type); higher = more cleavage; co-transcriptional.
For GGGGGCCACAGAAGAAGCGUUCACGUCGCGGCCCCUGUCAGAUUCUGGUGAAUCUGCGAAUUCUGGUGU, the self-cleavage is 0.561.
To GGGGGCCACAGAAGAAGCGUUCACGUCGCGGCCCCUGUCAGAUUCUGGUGAAUCUGCGAAUUCUGAUGU belongs 0.686.
In the case of GGGGGCCACAGAAGAAGCGUUCACGUCGCGGCCCCUGUCAGAUUCUGGUGAAUCUCCGAAUUCUGCUGU it was 0.348; in that of GGGGGCCACAGAAGAAGCGUUCACGUCGCGGCCCCUGUCAGAUUCUGGUGAAUCUACGAAUUCUGCUGU, 0.502.
To GGGGGCCACAGAAGAAGCGUUCACGUCGCGGCCCCUGUCAGAUUCUGGUGAAUCUUCGAAUUCUGCUGU belongs 0.296; to GGGGGCCACAGAAGAAGCGUUCACCUCGCGGCCCCUGUCAGAUUCUGGUGAAUCUGCGAAUUCUGCUGU, 0.127.
As to GGGGGCCACAGAAGAAGCGUUCACGCCGCGGCCCCUGUCAGAUUCUGGUGAAUCUGCGAAUUCUGCUGU, the self-cleavage was 0.5.
To GGGGGCCACAGAAGAAGCGUUCACGUCGCGGCCCCUGUCAGAUUCUGGUGAAUCUGCGAAUUCGGCUGU belongs 0.674; to GGGGGCCACAGAAGAAGCCUUCACGUCGCGGCCCCUGUCAGAUUCUGGUGAAUCUGCGAAUUCUGCUGU, 0.125; to GGGGGCCACAGAAGAAGCGCUCACGUCGCGGCCCCUGUCAGAUUCUGGUGAAUCUGCGAAUUCUGCUGU, 0.132.
In the case of GGGGGCCACAGAAGAAGCGAUCACGUCGCGGCCCCUGUCAGAUUCUGGUGAAUCUGCGAAUUCUGCUGU it was 0.0992; in that of GGGGGCCACAGAAGAAGCGGUCACGUCGCGGCCCCUGUCAGAUUCUGGUGAAUCUGCGAAUUCUGCUGU, 0.18; in that of GGGGGCCACAGAAGAAGCGUUCACGUCGCGGCCCCUGUCAGAUUCUGGUGAAUCUGCGAAUUCUACUGU, 0.887.
In the case of GGGGGCCACAGAAGAAGCGUUCACGUCGCGGCCCCUGUCAGAUUCUGGUGAAUCUGCGAAUUCUUCUGU it was 0.932.
Turning to GGGGGCCACAGAAGAAGCGUUCACGUCGCGGCCCCUGUCAGAUUCUGGUGAAUCGGCGAAUUCUGCUGU, the self-cleavage was found to be 0.172.
To GGGGGCCACAGAAGAAGCGUUCACGUCGCGGCCCCUGUCAGAUUCUGGUGAAUCAGCGAAUUCUGCUGU belongs 0.23; to GGGGGCCACAGAAGAAGCGUUCACGUCGCGGCCCCUGUCAGAUUGUGGUGAAUCUGCGAAUUCUGCUGU, 0.614; to GGGGGCCACAGAAGAAGCGUUCACGUCGCGGCCCCUGUCAGAUUCUGGUGAAUGUGCGAAUUCUGCUGU, 0.392.
To GGGGGCCACAGAAGAAGCGUUCACGUCGCGGCCCCUGUCAGAUUCUGGUGAAUAUGCGAAUUCUGCUGU belongs 0.311; to GGGGGCCACAGAAGAAGCGUUCACGUCGCGGCCCCUGUCAGAUUCUGGAGAAUCUGCGAAUUCUGCUGU, 0.893.
To GGGGGCCACAGAAGAAGCGUUCACGUCGCGGCCCCUGUCAGAUUCUGGGGAAUCUGCGAAUUCUGCUGU belongs 0.846; to GGGGGCCACAGAAGAAGCGUUCACGUCGCGGCCCCUGUCAGAAUCUGGUGAAUCUGCGAAUUCUGCUGU, 0.259; to GGGGGCCACAGAAGAAGCGUUCACGUCGCGGCCCCUGUCAGAGUCUGGUGAAUCUGCGAAUUCUGCUGU, 0.207.
Consider GGGGGCCACAGAAGAAGCGUUCACGUCGCGGCCCCUGUCAGACUCUGGUGAAUCUGCGAAUUCUGCUGU, for which the self-cleavage is 0.453.
To GGGGGCCACAGAAGAAGCGUUCACGUCGCAGCCCCUGUCAGAUUCUGGUGAAUCUGCGAAUUCUGCUGU belongs 0.322; to GGGGGCCACAGAAGAAGCGUUCACGUCGCUGCCCCUGUCAGAUUCUGGUGAAUCUGCGAAUUCUGCUGU, 0.212; to GGGGGCCACAGAAGAAGCGUUCACGUCGCGGCCCCCGUCAGAUUCUGGUGAAUCUGCGAAUUCUGCUGU, 0.441.
In the case of GGGGGCCACAGAAGAAGCGUUCACGUCUCGGCCCCUGUCAGAUUCUGGUGAAUCUGCGAAUUCUGCUGU it was 0.141; in that of GGGGGCCACAGAAGAAGCGUUCACGUCCCGGCCCCUGUCAGAUUCUGGUGAAUCUGCGAAUUCUGCUGU, 0.164; in that of GGGGGCCACAGAAGAAGCGUUCACGUCGCGGCCCCUGUCAGAUGCUGGUGAAUCUGCGAAUUCUGCUGU, 0.55.
To GGGGGCCACAGAAGAAGCGUUCACGUCGCGGCCCCUGUCAGAUACUGGUGAAUCUGCGAAUUCUGCUGU belongs 0.349; to GGGGGCCACAGAAGAAGCGUUCACGUCGCGGCCCCUGUCAGAUCCUGGUGAAUCUGCGAAUUCUGCUGU, 0.343.
Turning to GGGGGCCACAGGUGAAGCGUUCACGUCGCGGCCCCUGUCAGAUUCUGGUGAAUCUGCGAAUUCUGCUGU, the self-cleavage was found to be 0.129.
To GGGGGCCACAGGCGAAGCGUUCACGUCGCGGCCCCUGUCAGAUUCUGGUGAAUCUGCGAAUUCUGCUGU belongs 0.26; to GGGGGCCACAGAAGAAGCGUACACGUCGCGGCCCCUGUCAGAUUCUGGUGAAUCUGCGAAUUCUGCUGU, 0.642.
To GGGGGCCACAGAAGAAGCGUCCACGUCGCGGCCCCUGUCAGAUUCUGGUGAAUCUGCGAAUUCUGCUGU belongs 0.464; to GGGGGCCACAGGAGUAGCGUUCACGUCGCGGCCCCUGUCAGAUUCUGGUGAAUCUGCGAAUUCUGCUGU, 0.171; to GGGGGCCACAGGAGCAGCGUUCACGUCGCGGCCCCUGUCAGAUUCUGGUGAAUCUGCGAAUUCUGCUGU, 0.301.
To GGGGGCCACAGGAGGAGCGUUCACGUCGCGGCCCCUGUCAGAUUCUGGUGAAUCUGCGAAUUCUGCUGU belongs 0.613.
For GGGGGCCACAGAAGAAGCGUUCACGUCGCGGCCCCUGUCACAUUCUGGUGAAUCUGCGAAUUCUGCUGU, the self-cleavage amounted to 0.191.
To GGGGGCCACAGAAGAAGCGUUCACGUCGCGGCCCCUGUCAUAUUCUGGUGAAUCUGCGAAUUCUGCUGU belongs 0.286.
In the case of GGGGGCCACAGAAGAAGCGUUCACGUCGCGGCCCCUGUCAGAUUCUGGUGAAUCUGCCAAUUCUGCUGU it was 0.653; in that of GGGGGCCACAGAAGAAGCGUUCACGUCGCGGCCCCUGUCAGAUUCUGGUGAAUCUGCUAAUUCUGCUGU, 0.843.
For the variant GGGGGCCACAGAAGAAGCGUUCACGUCGCGGCCCCUGUCAGAUUCGGGUGAAUCUGCGAAUUCUGCUGU, the self-cleavage was 0.628.
To GGGGGCCACAGAAGAAGCGUUCACGUCGCGGCCCCUGUCAGAUUCCGGUGAAUCUGCGAAUUCUGCUGU belongs 0.609; to GGGGGCCACAGAAGAAGCGUUCACGUCGCGGCCCCUGUCAGAUUCUUGUGAAUCUGCGAAUUCUGCUGU, 0.876; to GGGGGCCACAGAAGAAGCGUUCACGUCGCGGCCCCUGUCAGAUUCUCGUGAAUCUGCGAAUUCUGCUGU, 0.837.
On to GGGGGCCACAGAAGAAGCGUUCACGUCGCGGCCCCUGUCAGAUUCUAGUGAAUCUGCGAAUUCUGCUGU, for which the self-cleavage worked out at 0.875.
To GGGGGCCACAGAAGAAGCGUUCACGUCGCGGCCCCUGUCAGAUUCUGGUGAAUCUGUGAAUUCUGCUGU belongs 0.317; to GGGGGCCACAGAAGAAGCGUUCACGUCGCGGCCCCUGUCAGAUUCUGGUGAAUCUGAGAAUUCUGCUGU, 0.172.
On to GGGGGCCACAGAAGAAGCGUUCACGUCGCGGCCCCUGUCAGAUUCUGGUGAAUCUGGGAAUUCUGCUGU, for which the self-cleavage amounted to 0.212.
In the case of GGGGGCCACAGAAGAAGCGUUCACGUCGCGGCCCCUGUCAGAUUCUGGUUAAUCUGCGAAUUCUGCUGU it was 0.738.
GGGGGCCACAGAAGAAGCGUUCACGUCGCGGCCCCUGUCAGAUUCUGGUCAAUCUGCGAAUUCUGCUGU: the self-cleavage was 0.591.
In the case of GGGGGCCACAGAAGAAGCGUUCACGUCGCGGCCCCUGUCAGAUUCUGGUAAAUCUGCGAAUUCUGCUGU it was 0.809; in that of GGGGGCCACAGGAGAGGCGUUCACGUCGCGGCCCCUGUCAGAUUCUGGUGAAUCUGCGAAUUCUGCUGU, 0.578.
To GGGGGCCACAGAAGAAGCGUUCACGUCGCGGCCCCUGGCAGAUUCUGGUGAAUCUGCGAAUUCUGCUGU belongs 0.235; to GGGGGCCACAGAAGAAGCGUUCACGUCGCGGCCCCUGUCAGAUUCUGAUGAAUCUGCGAAUUCUGCUGU, 0.833; to GGGGGCCACAGAAGAAGCGUUCACGUCGCGGCCCCUGUCAGAUUCUGCUGAAUCUGCGAAUUCUGCUGU, 0.771.
To GGGGGCCACAGAACAAGCGUUCACGUCGCGGCCCCUGUCAGAUUCUGGUGAAUCUGCGAAUUCUGCUGU belongs 0.126; to GGGGGCCACAGAAGAAGCGUUCACGUCGCGGCCCCUGUCAGAUUCUGGUGAAACUGCGAAUUCUGCUGU, 0.354.
Regarding GGGGGCCACAGAAGAAGCGUUCACGUCGCGGCCCCUGUCAGAUUCUGGUGAAGCUGCGAAUUCUGCUGU, the self-cleavage stood at 0.335.
Turning to GGGGGCCACAGAAGAAACGUUCACGUCGCGGCCCCUGUCAGAUUCUGGUGAAUCUGCGAAUUCUGCUGU, the self-cleavage came out at 0.187.
In the case of GGGGGCCACAGAAGAACCGUUCACGUCGCGGCCCCUGUCAGAUUCUGGUGAAUCUGCGAAUUCUGCUGU it was 0.139; in that of GGGGGCCACAGAAGAAUCGUUCACGUCGCGGCCCCUGUCAGAUUCUGGUGAAUCUGCGAAUUCUGCUGU, 0.0724; in that of GGGGGCCACAGAAGAAGCGUUCACGUCGCGGCCCCUGUCAGAUUCUGGUGAAUCUGCGAAUACUGCUGU, 0.248.
In the case of GGGGGCCACAGAAGAAGCGUUCACGUCGCGGCCCCUGUCAGAUUCUGGUGAAUCUGCGAAUGCUGCUGU it was 0.312.
In the case of GGGGGCCACAGAAGAAGCGUUCACGUCGCGGCCCCUGUCAGAUUCUGGUGAAUCUGCGAAUUCUGCUGC it was 0.981; in that of GGGGGCCACAGAAGAAGCGUUCACGUCGCGGCCCCUGUCAGAUUCUGGUGAAUCUGCGAAUUCUGCUGA, 0.886; in that of GGGGGCCACAGAAGAAGCGUUCACGUCGCGGCCCCUGUCAGAUUCUGGUGAAUCUGCGAAUUCUGCUAU, 0.843.
For the variant GGGGGCCACAGAAGAAGCGUUCACGUCGCGGCCCCUGUCAGAUUCUGGUGAAUCUGCGAAUUCUGCUCU, the self-cleavage is 0.842.
In the case of GGGGGCCACAGAAGAAGCGUUCACGUCGCGGCCCCUGUCAGAUUCUGGUGAAUCUGCGAAUUCUGCUUU it was 0.807.
In the case of GGGGGCCACAGAAGAAGCGUUCACGUCGCGGCCCCUGUCAGAUUCUGGUGAAUCUGCGAAUUCUGCCGU it was 0.812; in that of GGGGGCCACAGAAGAAGCGUUCACGUCGCGGCCCCUGUCAGAUUCUGGUGAAUCUGCGAAUUCUGCAGU, 0.671; in that of GGGGGCCACAGAAGAAGCGUUCACGUCGCGGCCCCUGUCAGAUUCUGGUGAAUCUGCGAAUUCUGCGGU, 0.791.
In the case of GGGGGCCACAGAAGAAGCGUUCACGUCGCGGCCCCUGUCAGAUUCUGGUGAAUCUGCGAACUCUGCUGU it was 0.246.
As for GGGGGCCACAGAAGAAGCGUUCACGUCGCGGCCCCUGUCAGAUUCUGGUGAAUCUGCGAAAUCUGCUGU, the self-cleavage stood at 0.312.
In the case of GGGGGCCACAGAAGAAGCGUUCACGUCGCGGCCCCUGUCAGAUUCUGGUGAAUCUGCGAAGUCUGCUGU it was 0.316.
GGGGGCCACAGAAGAAGCGUUCACGUCGCGGCCCCUGUCAGAUUCUGGUGAAUCUGCGAAUUGUGCUGU: the self-cleavage was 0.354.
